The results in this text go back to paper PMC7948952, “Structural basis for multifunctional roles of human Ints3 C-terminal domain” (The Journal of Biological Chemistry, 2020).

Data set [1] concerns the molecule itself. The data set is described as follows: cross-linking; glutaraldehyde, final concentration 0.075%, SDS-PAGE; negative control with 1% SDS and 20 mM DTT added before the reaction.
Data set [2] deals with the molecule itself. As to the kind of experiment: SEC; Superdex 200 Increase 10/300 Gl, 100 μl of approximately 2 mg/ml, 0.5 ml/min; wild-type and mutant Ints3-555-976. In general terms: Size exclusion chromatography separates by hydrodynamic size, large species first.
For data set [3], the target named is T1, GST-tagged Ints3-555-976, wild type (human, UniProt Q68E01-2 555-976).
T1 construct: numbers count on: UniProtKB Q68E01-2, 1042 amino acids; also called GST-Ints3; GST-tagged Ints3 C-terminal domain; source: E. coli BL21, captured on glutathione Sepharose from lysate; also coexpressed with MBP-Ints6-807-887; not shown: GST, N-terminal, kept
The data set is described as follows: pull-down; in vitro GST pull-down: GST-Ints3 captured on glutathione Sepharose 4B from BL21 lysates, incubated with about 15 μg purified MBP-Ints6-807-887; 20 mM Tris-HCl pH 8.0, 300 mM NaCl, 0.1% Nonidet P-40, 5% glycerol, 2 mM DTT, 2 h at 4 °C; anti-MBP blot. The settings on record: both partners purified.

In another data set the target is T2, GST-tagged Ints3-555-899 (human, UniProt Q68E01-2 555-899).
T2 construct: numbers count on: UniProtKB Q68E01-2, 1042 amino acids; source: E. coli BL21, captured on glutathione Sepharose from lysate
The description is as above. The settings on record: both partners purified.

The target in data set [4] is T3, GST-tagged Ints3-555-976 R863A/D869A (human, UniProt Q68E01-2 555-976, R863A | D869A).
T3 construct: numbers count on: UniProtKB Q68E01-2, 1042 amino acids; source: E. coli BL21, coexpressed with MBP-Ints6-807-887; also captured on glutathione Sepharose from lysate; not shown: GST, N-terminal, kept
As to the kind of experiment: pull-down; coexpression in E. coli of GST-tagged Ints3 constructs (pGEX-6p-1) and MBP-Ints6-807-887 (pRSFDuet-1), GST or MBP pull-down ('coexpression and reverse pull-down'). The settings on record: partners not purified.

Data set [5] addresses Ints3 C-terminal domain (Ints3-555-976) WT (human, UniProt Q68E01-2 555-976). The data set is described as follows: EMSA; roughly 100% bound at 25 uM protein; 20 mM Hepes pH 7.4, 100 mM NaCl, 1 mM MgCl2, 1 mg/ml BSA, 2 mM DTT, 5% glycerol; on ice 30 min; 7.5 nM probe; native 5% PAGE in 1X TBE. The settings on record: protein: recombinant; tags: His or GST (GST cleaved); chain copies: 2; label: 5' 32P; single strand.

Numbering of substitutions follows the chain as printed. Numbers in names are those of the source.

B1: Ints3-555-976 (human Ints3 C-terminal domain), wild type (domain or fragment, UniProt Q68E01-2 555-976, looked up)
chain: PIKETVVEEPVDITPYLDQLDESLRDKVLQLQKGSDTEAQCEVMQEIVDQVLEEDFDSEQLSVLASCLQELFKAHFRGEVLPEEITEESLEESVGKPLYLIFRNLCQMQEDNSSFSLLLDLLSELYQKQPKIGYHLLYYLRASKAAAGKMNLYESFAQATQLGDLHTCLMMDMKACQEDDVRLLCHLTPSIYTEFPDETLRSGELLNMIVAVIDSAQLQELVCHVMMGNLVMFRKDSVLNILIQSLDWETFEQYCAWQLFLAHNIPLETIIPILQHLKYKEHPEALSCLLLQLRREKPSEEMVKMVLSRPCHPDDQFTTSILRHWCMKHDELLAEHIKSLLIKNNSLPRKRQSLRSSSSKLAQLTLEQILEHLDNLRLNLTNTKQNFFSQTPILQALQHVQASCDEAHKMKFSDLFSLAEEY
notes: numbers count on: UniProtKB Q68E01-2, 1042 amino acids; For crystallisation a trace of trypsin (1:1000 w/w) was added; it cuts after K557 and after K914, and both fragments stay in the crystal; SeMet protein was used for phasing; also called HR1-11; Band I; not shown: GST, N-terminal, cleaved
A word on the stoichiometry N: it is a count of units in the complex or per binding partner. As to B1, in data set [1], the “stoichiometry N” value was determined as 2.

B2: Ints3-555-976 R788E/K789E (domain or fragment, human, UniProt Q68E01-2 555-976, looked up)
chain: B1 chain with R234E, K235E
notes: numbers count on: UniProtKB Q68E01-2, 1042 amino acids; source: purified to homogeneity (gel filtration)
With B2, the “stoichiometry N” value in data set [2] came to 2.

B3: Ints3-555-976 K851E (domain or fragment, human, UniProt Q68E01-2 555-976, looked up)
chain: B1 chain with K297E
notes: numbers count on: UniProtKB Q68E01-2, 1042 amino acids; also called K851 E charge mutant; source: purified to homogeneity (gel filtration)
With B3, the “stoichiometry N” value in data set [2] was 2.

B4: MBP-Ints6-807-887 (domain or fragment, UniProt Q9UL03 807-887, looked up)
chain: EVNTELKAQIMKEIRKPGRKYERIFTLLKHVQGSLQTRLIFLQNVIKEASRFKKRMLIEQLENFLDEIHRRANQINHINSN
notes: Integrator complex subunit 6 (Ints6, DDX26a), residues 807-887; cDNA from DNAsu; Made in a modified pMal-c2X vector: an AAAEF linker and no protease site stand between MBP and Ints6-807-887; the MBP-Ints6-807-887 region was then cloned into pRSFDuet-1; also called MBP-tagged Ints6-807-887; source: E. coli BL21-CodonPlus (DE3)-RIPL, purified (amylose resin, HiTrap Q); also coexpressed with …
B4: the binding result (in data set [3]; with GST-tagged Ints3-555-899; in data set [4]) was “binds” in each case.

B5: rU30 (ssRNA)
RNA: UUUUUUUUUUUUUUUUUUUUUUUUUUUUUU
Regarding B5, the binding result in data set [5] is recorded as “binds”.
